According to article PMC10497406, “PCNA recruits cohesin loader Scc2 to ensure sister chromatid cohesion” (Nature Structural & Molecular Biology, 2023):

B1: N-terminally His-tagged yeast Pol30 (PCNA) (natural protein, S. cerevisiae, UniProt P15873 1-258, looked up)
chain: MLEAKFEEASLFKRIIDGFKDCVQLVNFQCKEDGIIAQAVDDSRVLLVSLEIGVEAFQEYRCDHPVTLGMDLTSLSKILRCGNNTDTLTLIADNTPDSIILLFEDTKKDRIAEYSLKLMDIDADFLKIEELQYDSTLSLPSSEFSKIVRDLSQLSDSINIMITKETIKFVADGDIGSGSVIIKPFVDMEHPETSIKLEMDQPVDLTFGAKYLLDIIKGSSLSDRVGIRLSSEAPALFQFDLKSGFLQFFLAPKFNDEE
notes: Pol30 (PCNA), S. cerevisiae; no measurement of the oligomer here; also called HisPol30; yeast PCNA; not shown: His, N-terminal, kept

Legend:
Settings in all cases: both partners purified
[1] = molecular target: T1, GST–Scc2^C1100 (Scc2 amino acids 394–1493 fused to GST) (S. cerevisiae, UniProt Q04002 394-1493); test: pull-down; GST–Scc2 fusions on glutathione Sepharose 4B beads, purified His-tagged yeast Pol30 (2.5 μg) in 0.7 ml binding buffer (1× PBS, 150 mM NaCl, 1% Triton X-100), overnight at 4 °C; western blot with anti-Pol30
T1 construct: also called nearly full-length Scc2 fused to GST; not shown: GST, N-terminal, kept
T1 sequence (looked up): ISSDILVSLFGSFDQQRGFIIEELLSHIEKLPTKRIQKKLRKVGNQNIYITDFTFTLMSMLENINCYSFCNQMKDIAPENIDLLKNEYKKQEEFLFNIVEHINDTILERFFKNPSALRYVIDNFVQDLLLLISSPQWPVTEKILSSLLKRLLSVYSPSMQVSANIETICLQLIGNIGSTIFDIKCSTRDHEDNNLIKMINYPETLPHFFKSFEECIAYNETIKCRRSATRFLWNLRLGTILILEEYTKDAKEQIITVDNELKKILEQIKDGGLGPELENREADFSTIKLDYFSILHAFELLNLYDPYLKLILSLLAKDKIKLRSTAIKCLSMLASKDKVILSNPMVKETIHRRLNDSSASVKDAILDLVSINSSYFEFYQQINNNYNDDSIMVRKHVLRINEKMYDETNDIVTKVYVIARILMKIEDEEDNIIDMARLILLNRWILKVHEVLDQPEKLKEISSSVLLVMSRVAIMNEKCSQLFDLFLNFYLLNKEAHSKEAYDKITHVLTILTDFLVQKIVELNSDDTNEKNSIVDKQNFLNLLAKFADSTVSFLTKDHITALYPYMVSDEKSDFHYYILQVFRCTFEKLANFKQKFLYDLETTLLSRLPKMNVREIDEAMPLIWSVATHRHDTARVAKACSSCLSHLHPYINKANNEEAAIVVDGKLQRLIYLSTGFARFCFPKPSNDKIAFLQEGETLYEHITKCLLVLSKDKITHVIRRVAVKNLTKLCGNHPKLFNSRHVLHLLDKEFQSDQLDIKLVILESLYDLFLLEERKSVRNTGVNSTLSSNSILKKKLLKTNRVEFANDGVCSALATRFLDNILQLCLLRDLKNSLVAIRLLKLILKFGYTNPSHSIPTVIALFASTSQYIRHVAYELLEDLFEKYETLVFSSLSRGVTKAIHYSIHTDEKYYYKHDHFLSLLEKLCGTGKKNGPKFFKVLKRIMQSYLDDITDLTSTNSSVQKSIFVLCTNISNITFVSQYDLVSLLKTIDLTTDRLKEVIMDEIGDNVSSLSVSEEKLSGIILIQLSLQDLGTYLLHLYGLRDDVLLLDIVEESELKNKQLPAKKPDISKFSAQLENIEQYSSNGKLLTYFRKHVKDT

[2] = molecular target: T2, N-terminally His-tagged chicken PCNA (chicken, UniProt Q9DEA3 1-262); test: pull-down; GST–NIPBL fusions (chicken) on glutathione Sepharose 4B beads, recombinant N-terminally His-tagged chicken PCNA; blots with anti-PCNA and anti-GST
T2 construct: PCNA, chicken; also called HisPCNA; recombinant chicken PCNA; not shown: His, N-terminal, kept

[3] = molecular target: B1; test: pull-down; GST–Scc2 fusions on glutathione Sepharose 4B beads, purified His-tagged yeast Pol30 (2.5 μg) in 0.7 ml binding buffer (1× PBS, 150 mM NaCl, 1% Triton X-100), overnight at 4 °C; western blot with anti-Pol30

T2 sequence (Q9DEA3 whole entry, the tested form may be a part): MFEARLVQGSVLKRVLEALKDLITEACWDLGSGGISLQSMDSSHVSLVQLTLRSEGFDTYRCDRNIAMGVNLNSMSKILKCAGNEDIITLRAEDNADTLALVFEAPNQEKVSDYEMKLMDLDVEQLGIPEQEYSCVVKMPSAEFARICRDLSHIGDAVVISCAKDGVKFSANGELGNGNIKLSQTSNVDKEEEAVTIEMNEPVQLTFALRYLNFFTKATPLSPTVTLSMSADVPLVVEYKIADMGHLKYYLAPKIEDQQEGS

Binder: B1
- binding result [1]: binds

B2: GST–NIPBL^(C202 WT) (chicken NIPBL residues 2582–2783 fused to GST) (domain or fragment, UniProt F1NJ66 2582-2783, looked up)
chain: ANSKITEEVKRSIVKQYLDFKLLMEHLDPDEEEEDGEVSASTNARNKAITSLLGGGSPKNNAAETEDDESDGEDRGGGTSGSLRRSKRNSDSTELASQMNESVDVMDVIAICCPKYKDRPQIARVVQKTSNGFSVQWMAGSYSGSWTEAKRRDGRKLVPWVDTIKESDIIYKKIALTSANKLTNKVVQTLRSLYAAKDGTSS
notes: also called NIPBL C-terminal fragment (C202); not shown: GST, N-terminal, kept
- binding result [2]: binds

B3: GST–NIPBL^(C202 pip1) (chicken NIPBL residues 2582–2783 with PIP1 mutated, fused to GST) (domain or fragment, UniProt F1NJ66 2582-2783, looked up)
chain: ANSKITEEVKRSIVKAYADAKLLMEHLDPDEEEEDGEVSASTNARNKAITSLLGGGSPKNNAAETEDDESDGEDRGGGTSGSLRRSKRNSDSTELASQMNESVDVMDVIAICCPKYKDRPQIARVVQKTSNGFSVQWMAGSYSGSWTEAKRRDGRKLVPWVDTIKESDIIYKKIALTSANKLTNKVVQTLRSLYAAKDGTSS
notes: also called NIPBL^Q2597A,L2599A,F2601A; not shown: GST, N-terminal, kept
- binding result [2]: binds

Binder: TNKVVATARSLAAAKDGTSS (domain or fragment, UniProt F1NJ66 2764-2783, looked up, not shown: GST, N-terminal, kept) [GST–NIPBL-pip2 (chicken NIPBL amino acids 2764–2783, Q2769A,L2771A,Y2775A, fused to GST)]
- binding result [2]: binds

B4: GST–Scc2PIP (Scc2 residues 1476–1493 fused to GST) (domain or fragment, S. cerevisiae, UniProt Q04002 1476-1493, looked up)
chain: YSSNGKLLTYFRKHVKDT
notes: also called PIP of Scc2 fused to GST; last 18 amino acids of Scc2; not shown: GST, N-terminal, kept
- binding result [3]: binds

Binder: TNKVVQTLRSLYAAKDGTSS (domain or fragment, UniProt F1NJ66 2764-2783, looked up, not shown: GST, N-terminal, kept) [GST–NIPBL-PIP2 (chicken NIPBL amino acids 2764–2783 fused to GST)]
- binding result [2]: binds
